The values that follow are results of earlier work, collected in article PMC8542695.

Data set [1] has as its target p53 (Homo sapiens) (UniProt P04637).
Data set [2] deals with non-muscle myosin 2A (NM2A) (Homo sapiens) (UniProt P35579).
In data set [3] the target is annexin A2 (ANXA2) (Homo sapiens) (UniProt P07355).
Chain of annexin A2 (ANXA2) (Homo sapiens) (P07355 2-339): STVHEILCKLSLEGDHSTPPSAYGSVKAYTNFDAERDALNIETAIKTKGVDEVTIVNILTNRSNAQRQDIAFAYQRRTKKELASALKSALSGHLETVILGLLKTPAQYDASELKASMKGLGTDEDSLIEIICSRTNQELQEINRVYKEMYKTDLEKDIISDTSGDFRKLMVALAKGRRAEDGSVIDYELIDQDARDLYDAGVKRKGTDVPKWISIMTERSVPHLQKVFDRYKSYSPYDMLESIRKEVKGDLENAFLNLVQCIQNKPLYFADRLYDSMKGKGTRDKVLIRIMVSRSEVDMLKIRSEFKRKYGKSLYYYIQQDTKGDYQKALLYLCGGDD

Chain of S100A4 (P26447 2-101): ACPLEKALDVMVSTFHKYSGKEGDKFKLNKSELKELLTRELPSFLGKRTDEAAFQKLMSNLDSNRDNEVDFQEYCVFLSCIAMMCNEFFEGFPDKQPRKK
Chain of non-muscle myosin 2A (NM2A) (Homo sapiens) (P35579 2-1960): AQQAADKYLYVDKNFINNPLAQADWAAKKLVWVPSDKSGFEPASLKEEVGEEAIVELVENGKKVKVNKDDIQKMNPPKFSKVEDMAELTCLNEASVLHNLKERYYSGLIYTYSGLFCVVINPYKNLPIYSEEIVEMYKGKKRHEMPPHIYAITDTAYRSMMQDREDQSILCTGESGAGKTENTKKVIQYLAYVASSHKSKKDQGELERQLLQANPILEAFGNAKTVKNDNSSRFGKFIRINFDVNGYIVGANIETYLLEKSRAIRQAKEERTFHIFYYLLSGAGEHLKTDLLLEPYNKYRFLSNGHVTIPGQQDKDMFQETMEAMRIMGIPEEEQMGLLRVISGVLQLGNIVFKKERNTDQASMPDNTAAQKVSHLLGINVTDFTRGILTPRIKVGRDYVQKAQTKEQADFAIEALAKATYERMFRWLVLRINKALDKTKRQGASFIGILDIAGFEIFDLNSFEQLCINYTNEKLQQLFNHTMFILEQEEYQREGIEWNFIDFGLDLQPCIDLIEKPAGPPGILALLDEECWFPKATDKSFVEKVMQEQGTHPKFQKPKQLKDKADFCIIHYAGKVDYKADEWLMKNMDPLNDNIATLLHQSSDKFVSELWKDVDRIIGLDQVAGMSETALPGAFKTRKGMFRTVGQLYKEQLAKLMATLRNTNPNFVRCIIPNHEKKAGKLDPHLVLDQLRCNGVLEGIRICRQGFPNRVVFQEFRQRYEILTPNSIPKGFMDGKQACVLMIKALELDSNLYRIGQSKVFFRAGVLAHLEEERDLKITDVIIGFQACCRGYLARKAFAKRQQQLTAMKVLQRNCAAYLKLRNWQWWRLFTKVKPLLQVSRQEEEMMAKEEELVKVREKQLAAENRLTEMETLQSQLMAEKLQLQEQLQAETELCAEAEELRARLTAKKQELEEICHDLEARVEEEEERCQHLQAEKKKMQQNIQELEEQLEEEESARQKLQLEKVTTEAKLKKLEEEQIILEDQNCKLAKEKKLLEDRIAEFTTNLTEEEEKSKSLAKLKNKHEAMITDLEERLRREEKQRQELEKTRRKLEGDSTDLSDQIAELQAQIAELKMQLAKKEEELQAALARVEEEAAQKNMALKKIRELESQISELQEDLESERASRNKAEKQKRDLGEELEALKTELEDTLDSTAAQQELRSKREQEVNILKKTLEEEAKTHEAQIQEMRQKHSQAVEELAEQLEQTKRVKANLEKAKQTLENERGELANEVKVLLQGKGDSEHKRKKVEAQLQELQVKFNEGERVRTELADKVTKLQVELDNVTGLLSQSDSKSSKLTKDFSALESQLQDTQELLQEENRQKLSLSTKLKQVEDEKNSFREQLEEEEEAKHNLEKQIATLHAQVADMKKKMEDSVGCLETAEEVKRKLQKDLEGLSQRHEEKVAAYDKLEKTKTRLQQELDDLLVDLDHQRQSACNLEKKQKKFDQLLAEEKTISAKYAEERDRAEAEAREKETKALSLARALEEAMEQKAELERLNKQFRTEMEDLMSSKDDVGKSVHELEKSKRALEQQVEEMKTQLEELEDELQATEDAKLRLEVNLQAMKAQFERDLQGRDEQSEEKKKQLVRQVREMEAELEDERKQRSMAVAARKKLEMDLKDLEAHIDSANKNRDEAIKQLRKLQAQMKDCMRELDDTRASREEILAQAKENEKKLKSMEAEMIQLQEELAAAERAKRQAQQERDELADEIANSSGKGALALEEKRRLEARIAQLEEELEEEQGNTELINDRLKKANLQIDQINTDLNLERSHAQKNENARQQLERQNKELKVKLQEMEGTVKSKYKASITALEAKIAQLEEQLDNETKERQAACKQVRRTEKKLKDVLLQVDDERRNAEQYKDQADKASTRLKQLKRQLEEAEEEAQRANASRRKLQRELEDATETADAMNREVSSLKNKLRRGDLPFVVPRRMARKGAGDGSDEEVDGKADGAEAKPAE
Chain of p53 (Homo sapiens) (P04637 whole entry): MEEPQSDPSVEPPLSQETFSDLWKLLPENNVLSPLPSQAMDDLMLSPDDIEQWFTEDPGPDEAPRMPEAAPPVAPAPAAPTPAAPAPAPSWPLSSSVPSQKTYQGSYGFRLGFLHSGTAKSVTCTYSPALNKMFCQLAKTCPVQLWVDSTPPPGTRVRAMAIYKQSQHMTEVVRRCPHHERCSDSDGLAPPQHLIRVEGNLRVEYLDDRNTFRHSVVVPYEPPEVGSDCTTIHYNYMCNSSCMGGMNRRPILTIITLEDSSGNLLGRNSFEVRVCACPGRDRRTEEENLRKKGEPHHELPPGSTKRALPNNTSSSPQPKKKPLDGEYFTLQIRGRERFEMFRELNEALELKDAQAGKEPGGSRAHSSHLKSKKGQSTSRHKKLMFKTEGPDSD

One may read the Kd as the constant that tells how readily two partners part at equilibrium. Take S100A4 (from UniProt P26447): the Kd in data set [1] is 2 µM; in data set [2], < 0.001 µM; in data set [3] it was 2 µM.
